Target: the molecule itself
Assay: FRET or BRET

B1: PCNA-WC2-AEDANS (human PCNA N107W-T185C-C27M-W28F-C62M-C81S-C148S-C135S-C162S, labelled with AEDANS at C185) (natural protein)
chain: MFEARLVQGSILKKVLEALKDLINEAMFDISSSGVNLQSMDSSHVSLVQLTLRSEGFDTYRMDRNLAMGVNLTSMSKILKSAGNEDIITLRAEDNADTLALVFEAPWQEKVSDYEMKLMDLDVEQLGIPEQEYSSVVKMPSGEFARISRDLSHIGDAVVISSAKDGVKFSASGELGNGNIKLSQCSNVDKEEEAVTIEMNEPVQLTFALRYLNFFTKATPLSSTVTLSMSADVPLVVEYKIADMGHLKYYLAPKIEDEEGS
modifications: AEDANS on the cysteine at 185 (T185C), labelled with IAEDANS
binding result: binds
